Reference: patent US20250289899A1 (Genmab, published 2025)

What was measured:
[1] = biological target: T1, recombinant His-tagged human FcγRIa (human, UniProt P12314 16-288, limits assumed); assay: SPR (Biacore), His-tagged FcγRIa captured on anti-His chip, antibody in solution, resonance units against antibody concentration
T1 construct: Bought; captured on anti-His chip; not shown: His tag
Protocol: Biacore surface chips were covalently linked with anti-His antibody and coated with recombinant His-tagged Fc receptors (A) FcγRIa, (B) FcγRIIa-H, (C) FcγRIIa-R, (D) FcγRIIb, (E) FcγRIIIa-F, or (F) FcγRIIIa-V. The anti-HIV-gp120 antibody IgG1-b12 (ctrl) was included as a reference. Shown are absolute resonance units as determined by Biacore SPR after background subtraction (no Fc receptor flow-cell).
Binding of IgG1-CD27-A-P329R-E345R to human FcγR variants was analyzed using a Biacore surface plasmon resonance (SPR) system and compared to an anti-HIV gp120 antibody IgG1-b12 (ctrl). Biacore Series S Sensor Chips CM5 (Cytiva, Cat #29104988) were covalently coated with anti-His antibody using amine-coupling and His capture kits (Cytiva, Cat #BR100050 and Cat #29234602) according to the manufacturer's instructions. […] After three cycles of buffer, antibody samples were injected for 36 cycles to generate binding curves using antibody ranges of 0-3,000 nM for FcγRI and 0-10,000 nM for the other FcγRs. Each sample that was analyzed on an FcR-coated surface (Active Surface) was also analyzed on a parallel flow-cell without FcR (Reference Surface), which was used for background correction. Dissociation from the anti-His-coated surface was performed by regeneration of the surface using 10 mM Glycine-HCl pH 1.5 (Cytiva, Cat #BR100354). […]

[2] = biological target: T2, recombinant His-tagged human FcγRIIa (167-His [H]) (human, UniProt P12318 34-218, limits assumed); assay: SPR (Biacore), His-tagged FcγRIIa-H captured on anti-His chip, antibody in solution, resonance units against antibody concentration
T2 construct: Bought; captured on anti-His chip; also called FcγRIIa-H; not shown: His tag
T2 sequence (looked up): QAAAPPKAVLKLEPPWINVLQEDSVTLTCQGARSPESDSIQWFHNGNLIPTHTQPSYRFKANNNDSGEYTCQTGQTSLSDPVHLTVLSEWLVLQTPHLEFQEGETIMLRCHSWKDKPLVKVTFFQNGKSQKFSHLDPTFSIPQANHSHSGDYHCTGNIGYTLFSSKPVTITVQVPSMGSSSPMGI

[3] = biological target: T3, human C1q (from normal human serum) (human, UniProt P02745 23-245; P02746 28-253; P02747 29-245); assay: flow cytometry, C1q (20% normal human serum) on human T cells pre-incubated with the antibody, FITC rabbit anti-human C1q, median MFI FITC; antibody concentration varied
T3 construct: 20% normal human serum was the source of C1q
T3 sequence (P02745 23-245 limits assumed, chain 1 of 3): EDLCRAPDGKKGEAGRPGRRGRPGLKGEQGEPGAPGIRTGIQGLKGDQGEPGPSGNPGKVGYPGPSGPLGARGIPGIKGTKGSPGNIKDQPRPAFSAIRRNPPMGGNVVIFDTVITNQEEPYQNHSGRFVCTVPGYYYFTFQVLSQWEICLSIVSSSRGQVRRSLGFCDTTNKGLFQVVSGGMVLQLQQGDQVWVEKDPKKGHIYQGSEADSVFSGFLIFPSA
T3 sequence (P02746 28-253 limits assumed, chain 2 of 3): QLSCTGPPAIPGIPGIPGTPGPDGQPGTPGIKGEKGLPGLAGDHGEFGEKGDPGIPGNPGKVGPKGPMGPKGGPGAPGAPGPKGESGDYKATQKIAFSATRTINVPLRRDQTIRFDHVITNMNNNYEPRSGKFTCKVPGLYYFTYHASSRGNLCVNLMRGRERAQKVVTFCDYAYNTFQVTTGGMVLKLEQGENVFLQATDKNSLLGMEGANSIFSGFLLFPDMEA
T3 sequence (P02747 29-245 limits assumed, chain 3 of 3): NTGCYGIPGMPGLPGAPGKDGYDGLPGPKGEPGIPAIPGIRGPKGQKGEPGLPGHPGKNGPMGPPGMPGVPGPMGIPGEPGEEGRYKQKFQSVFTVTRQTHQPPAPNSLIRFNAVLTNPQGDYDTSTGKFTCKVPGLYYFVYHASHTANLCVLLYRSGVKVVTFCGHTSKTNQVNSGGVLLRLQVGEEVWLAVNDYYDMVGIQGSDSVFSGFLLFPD
Protocol: The P329R mutation was previously described to reduce interaction of IgG1 antibodies with C1q and FcgR (Overdijk et al, Molecular Cancer Therapeutics 2020). The effect of the P329R mutation on C1q binding of IgG1-CD27-A comprising the E345R mutation was tested in cellular C1q binding assays in vitro using human healthy donor T cells. Anti-HIV gp120 antibody IgG1-b12-F405L was used as non-binding isotype control antibody (ctrl). […] T cells (2×10⁶ cells/well) were pre-incubated in polystyrene 96-well round-bottom plates with antibody dilution series (8× five-fold dilution starting at 15 μg/mL final assay concentration) for 15 min at 37° C. to allow the antibodies to bind to the T cells. Then, cells were cooled on ice, supplemented with NHS as a source of human C1q (20% NHS final assay concentration) and incubated on ice for 45 min. Cells were subsequently incubated on ice with FITC-labeled Rabbit anti-human C1q antibody (DAKO, Cat #F0254; 20 μg/mL) for 30 min and resuspended in FACS buffer with TO-PRO-3 (ThermoFisher, Cat #T3605; 1:5,000 dilution). C1q binding was determined by flow cytometry measuring the FITC signal on live cells.

T1 sequence (P12314 16-288 limits assumed): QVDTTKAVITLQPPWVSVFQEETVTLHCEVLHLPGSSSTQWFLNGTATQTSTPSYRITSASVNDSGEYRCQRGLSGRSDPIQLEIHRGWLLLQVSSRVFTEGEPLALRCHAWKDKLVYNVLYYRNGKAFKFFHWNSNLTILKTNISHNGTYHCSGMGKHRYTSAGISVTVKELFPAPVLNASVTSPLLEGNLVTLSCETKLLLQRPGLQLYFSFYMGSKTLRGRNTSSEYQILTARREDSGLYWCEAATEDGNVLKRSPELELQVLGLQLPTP

B1: IgG1-CD27-A-P329R-E345R (antibody)
heavy: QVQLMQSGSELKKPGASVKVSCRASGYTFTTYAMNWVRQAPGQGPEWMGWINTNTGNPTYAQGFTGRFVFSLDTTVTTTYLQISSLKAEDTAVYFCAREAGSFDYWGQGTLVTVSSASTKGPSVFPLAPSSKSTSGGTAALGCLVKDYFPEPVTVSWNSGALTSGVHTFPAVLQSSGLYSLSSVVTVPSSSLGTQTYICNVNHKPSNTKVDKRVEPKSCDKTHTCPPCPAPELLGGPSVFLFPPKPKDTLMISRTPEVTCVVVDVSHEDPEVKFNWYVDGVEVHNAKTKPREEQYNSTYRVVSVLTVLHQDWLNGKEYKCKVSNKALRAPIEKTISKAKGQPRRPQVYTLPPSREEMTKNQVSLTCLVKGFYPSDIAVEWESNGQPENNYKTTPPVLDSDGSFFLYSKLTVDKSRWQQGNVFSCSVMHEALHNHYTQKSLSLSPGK
light: QSALTQPASVSGSPGQSITISCTGTSSDVYYYNYVSWYQQHPGRAPKLVIYDVSNRPSGVSNRFSGSKSGNTASLTISGLRAEDEADYYCSSYTVNRVWVFGGGTKLTVLGQPKAAPSVTLFPPSSEELQANKATLVCLISDFYPGAVTVAWKADSSPVKAGVETTTPSKQSNNKYAASSYLSLTPEQWKSHRSYSCQVTHEGSTVEKTVAPTECS
notes: also called IgG1-CD27-A-E345R-P329R
Does B1 bind [1]?
Result: binds

Does B1 bind [2]?
Result: no binding (tested: 10,000 nM)

Does B1 bind [3]?
Result: no binding (tested: 15 µg/mL)
